Measurements reported in publication PMC12282130.

Biological target: PlMYB73-nLUC (Paeonia lactiflora)

Dual-LUC reporter in N. benthamiana leaves: activation of PlTPS1pro (LUC/REN) by PlMYB73 together with PlMYB70, against PlMYB70 alone: 3.45 fold
Substance: cLUC-PlMYB70 (natural protein)
